Consider one molecule from patent publication US20090005253A1, “Double Hybrid System Based on Gene Silencing by Transcriptional Interference” (AVENTIS PHARMA S.A., priority 2004, published 2009).

For this test, the target named is fusion protein DBD-AppCt (GAL4 DBD fused to amino acids 650 to 695 of App) (Saccharomyces cerevisiae) (UniProt P04386). In words: cell-based or functional assay.

B1: fusion protein AD-Fe65 (GAL4 activation domain fused to amino acids 152 to 708 of Fe65) (protein)
chain: MDKAELIPEPPKKKRKVELGTAANFNQSGNIADSSLSFTFTNSSNGPNLITTQTNSQALSQPIASSNVHDNFMNNEITASKIDDGNNSKPLSPGWTDQTAYNAFGITTGMFNTTTMDDVYNYLFDDEDTPPNPKKEIEFKAAGEAEEEEEDDDDEEEEEDLSSPPGLPEPLESVEAPPRPQALTDGPREHSKSASLLFGMRNSAASDEDSSWATLSQGSPSYGSPEDTDSFWNPNAFETDSDLPAGWMRVQDTSGTYYWHIPTGTTQWEPPGRASPSQGSSPQEESQLTWTGFAHGEGFEDGEFWKDEPSDEAPMELGLKEPEEGTLTFPAQSLSPEPLPQEEEKLPPRNTNPGIKCFAVRSLGWVEMTEEELAPGRSSVAVNNCIRQLSYHKNNLHDPMSGGWGEGKDLLLQLEDETLKLVEPQSQALLHAQPIISIRVWGVGRDSGRDFAYVARDKLTQMLKCHVFRCEAPAKNIATSLHEICSKIMAERRNARCLVNGLSLDHSKLVDVPFQVEFPAPKNELVQKFQVYYLGNVPVAKPVGVDVINGALESVLSSSSREQWTPSHVSVAPATLTILHQQTEAVLGECRVRFLSFLAVGRDVHTFAFIMAAGPASFCCHMFWCEPNAASLSEAVQAACMLRYQKCLDARSQASTSCLPAPPAESVARRVGWTVRRGVQSLWGSLKPKRLGAHTP
As to B1, the 3-AT concentration at which differences in cell growth are detected was more than 15 mM and the growth of strain yRB49 (UI) plated on solid medium with 3-AT amounted to 1 mM.
